Consider 21 sequences from the DeepSol protein solubility set.

This series in a line: soluble on expression in E. coli; label from the status in PepcDB or PDB records.
“MTKRGPDDLQLSLRNGVGGASTTAPGVAAAAYYANVMTADSEPKKAKLDPTLYSSQFYTPAMHHGLMTADASTVAAVTAAANATTAQLLTGNPITQIQGIQLSTLPQCNSTSAVTSIPVSKVVHVRNIPPDLVDVELMQLCIQYGPVSNYMMLKGKSQAFVEYEEEASAAAFVSGMTAVPIQIRGRTLFAQYSTHRELKFDKNKAISDTESVANGSVSNFEVGTQQQPNSVLRTIIENMMFPVSLDVLYQLFTRYGKVLRIITFNKNNTFQALVQMSEANSAQLAKQGLENQNVYNGCCTLRIDYSKLSTLNVKYNNDKSRDYTNPNLPAGEMTLEQTIAMSIPGLQNLIPANPYNFAFGANPATTFLTTQLAASTAAAAAVNDSANAAALAPYLNPLGLTSANLAPSISSMRFPMINLTPVILVSNLHEMKVTTDALFTLFGVYGDVMRVKILYNKKDNALIQYSEPQQAQLALTHLDKVKWHDRLIRVAPSKHTNVQMPKEGQPDAGLTRDYAHSTLHRFKKPGSKNYLNIYPPCATLHLSNIPTSVSEEKLKEMFAEAGFAVKAFKFFPKDHKMALCQLEDIETAIDALIAMHNHKLAENAHLRVSFSKSGI”: the “soluble on expression in E. coli” value is listed as “not soluble”.

On to “MGSDKIHHHHHHSSSDLKDLLRERIAAKYTIDDLKDTGKKIRKTAPIESLAAVSKIDRDPVQFINSVEQNLTKSLLPMRHSRMGASQAAFFRGTAELMAYDLQQGEKSGINLLIDGDAHLQNFGFYASPERNLLFDLNDFDEAQINSFEFDIKRLLTSVYLLGDQQGFDADKLDELVQTDASIYRKTLRDLFKVGALDRFYQSTEVNHLVQSIPGAEDSALLSKFVKKATKRNNDSVIKKYTTTIDGNMRFKDDPPSSVRLDKATYQAIFDGFTQYRKSTRPDILVLLSEYRITDIIHHSVGIGSFGTNCYLVLLSGLGGSHLVLQVKEALPPRPELIPNTERITLQQEVSQGQRIIASQMILQKASDPFLGWFNVGDKSYYVRQFRDMKGSVDLEELTFPEFQYYTQITTYLLAMAHAQTPQAAVVTGYLDKSFDSAVQRWSKWYLNQVKADYSAFMRAVQTHMLA”, for which the “soluble on expression in E. coli” value is “not soluble”.

On to “MTKLAVVGATGLVGTKMLETLNRKNIPFDELVLFSSARSAGQEVEFQEKTYTVQELTDARASEHFDYVLMSAGGGTSEHFAPLFEKAGAIVIDNSSQWRMAEDIDLIVPEVNEPTFTRGIIANPNCSTIQSVVPLKVLQDAYGLKRVAYTTYQAVSGSGMKGKKDLAEGVNGKAPEAYPHPIYNNVLPHIDVFLENGYTKEEQKMIDETRKILNAPDLKVTATCARVPVQDSHSVEIDVTLDKETTAEDIKALFDQDDRVVLVDNPENNEYPMAINSTNKDEVFVGRIRRDDSLENTFHVWCTSDNLLKGAALNAVQVLEQVMRLKGAN”, for which the “soluble on expression in E. coli” value was “soluble”.

Consider “MRIAIDFDGTIVEHRYPRIGKEIPFAIATLKQLQTERHLLVLWTVREGKLLDEAVDFCRKRGLEFYAVNANHPEEEVRNDMTSPCRKVVADLYIDDLNVGKLPDWGAIYEMIHNRWSYERYLNEIHGFEKQKKISIWKRIFR”, for which the “soluble on expression in E. coli” value is given as “not soluble”.

Regarding “MCPVENKWLKVGQKGAGPGARSSHAMTVVGNKVYCFGGELKPTIHIDNDLYVFDLETQEWSIAPATGEAPFPCFGVSMVTIGSTIYVYGGRDDKRRYNGLHSYDTETNEWKLLAPVEEGLPGRSYHSMAGDDRKVYVFGGVTAKGRVNTLHAYDVVDQKWVEYPAAGEACKGRGAPGLVVVEGRIWVLFGFDGNELGDIHCFDLASEQWKAVETTGDVPAARSVFPAVSYGKYIVIYGGEEEPHELMHMGAGKMSGEVYQLDTETLVWERIVCGNEEEKPSQRGWCAFTKAVKDGEEGLLVHGGNSPTNERLDDLVFWGFSHLNVN”, the “soluble on expression in E. coli” value is on record as “soluble”.

For the sequence “MDTSSFETDLSLFKYDDLEALPDEYRELTPTARTERIEAARAELGDDVVVLGHNYQRREIVEHADFVGDSYQLSKEAANADADYVIFGGVTFMAESADIITDDSQSVILPSMEASCPMAGMAEALQVDAAWADITAAAPDETIIPITYMNSYADLKAFCAEQGGLVCTSSNAHRAFEWAFERGDKVLFLPDKHLGENTAHRLGMADATVEWDPWAAEGKTAEEVADADIVLWDGYCQVHERFTPEHVAEVRADHEDANVVVHPECRREVVEAADVVGSTATITETVADADPGETWAIGTEIHLANHLQRWHPEVNVVPLCGDACMDCNAMRQIDPNYLAWVLEELVEGRERNVIEVDSEEAELAQVGLDRMLELLEHHHHHH”, the “soluble on expression in E. coli” value is “not soluble”.

As for “MGSDKIHHHHHHMQAFDELLTVEQLSFSYEEDEKPVFQDISFELQKGECVLLLGPSGCGKSSLALCLNGLYPEACDGIQSGHVFLFQKPVTDAETSETITQHAGVVFQDPDQQFCMLTVEDEIAFGLENLQIPKEEMTEKINAVLGKLRITHLKEKMISTLSGGQKQKVALACILAMEPELIILDEPTSLLDPFSAREFVHLMKDLQREKGFSLLVIEHQLDEWAPWIERTIVLDKSGKKALDGLTKNLFQHEAETLKKLGIAIPKVCHLQEKLSMPFTLSKEMLFKEPIPAGHVKKKKAPSGESVLEVSSLSFARGQQAIFKDISFSLREGSLTALVGPNGTGKSTLLSVLASLMKPQSGKILLYDQPLQKYKEKELRKRMGFVFQNPEHQFVTDTVYDELLFGQKANAETEKKAQHLLQRFGLAHLADHHPFAISQGQKRRLSVATMLMHDVKVLLLDEPTFGQDARTAAECMEMIQRIKAEGTAVLMITQGYGASLFVC”, the “soluble on expression in E. coli” value is given as “not soluble”.

With “MSALGAPAPYLHHPTDSHSGRVSFLGSQPSAEVTAVAQLLKDLDRSTFRKLLKLVVGALHGKDCREAVQHLGASANLSEERLAVLLAGTHTLLQQALRLPPASLKPDAFQDELQELGIPQDMIGDLASLAFGSQRPLLDSVAQQQGSSLPRVSNFRWRVDVAISTSAQSRSLQPSVLMQLKLTDGSAHRFEVPIAKFQELRYSVALVLKEMAELERKCERKLQD”, the “soluble on expression in E. coli” value is “not soluble”.

For “AGHMADGELNVDSLITRLLEVRGCRPGKIVQMTEAEVRGLCIKSREIFLSQPILLELEAPLKICGDIHGQYTDLLRLFEYGGFPPEANYLFLGDYVDRGKQSLETICLLLAYKIKYPENFFLLRGNHECASINRIYGFYDECKRRFNIKLWKTFTDCFNCLPIAAIVDEKIFCCHGGLSPDLQSMEQIRRIMRPTDVPDTGLLCDLLWSDPDKDVQGWGENDRGVSFTFGADVVSKFLNRHDLDLICRAHQVVEDGYEFFAKRQLVTLFSAPNYCGEFDNAGGMMSVDETLMCSFQILKPSEKKAKYQYGGLNSGRPVTPPRTANPPKKR”, the “soluble on expression in E. coli” value is given as “soluble”.

Regarding “MGYTKKVYEGGSNVDQFVTRFLLKETANQIQSLLSSVESAVEAIEEQTSQLRQNHIKPSHSAAQTWCGSPTPASAPNHKLMAMEQGKTLPSATEDAKEEGLEAQISRLAELIGRLESKALWFDLQQRLSDEDGTNMHLQLVRQEMAVCPEQLSEFLDSLRQYLRGTTGVRNCFHITAVRLSDGFTFVIYEFWETEEAWKRHLQSPLCKAFRHVKVDTLSQPEALSRILVPAAWCTVGRD”, the “soluble on expression in E. coli” value is given as “not soluble”.

On to “MAGDPMVMLNTHVVECLQACGRCAAACDYCASSCLREGHGADMARCIALDLDCAAACRLCAAMMARESEFSTHMCTLCARICEVCGDECARHEPRHCQECATACHACASACRAMARPLEHHHHHH”, for which the “soluble on expression in E. coli” value is reported as “soluble”.

On to “MKNEVKFMSEVIKVVDVKIFPHRYLKAETTEKVLNEIYDLDGIVRVIVHGQPLPKTVPFGPARGLPVNHQDRKVIKVKGEEMELRVKVGEIIITVEGEKLEKIMDGIEEICKRNFPFGYDIYVGAFTKIKPTVTDYMKYGDISSIDPRLIGMVDASARLKDSVKMIKLEHHHHHH”, for which the “soluble on expression in E. coli” value is recorded as “soluble”.

As to “MSLKCETERSKTWNNFGNGIPCVLGIDEAGRGPVLGPMVYAAAISPLDQNVELKNLGVDDSKALNEAKREEIFNKMNEDEDIQQIIAYALRCLSPELISCSMLKRQKYSLNEVSHEAAITLIRDALACNVNVVEIKVDTVGPKATYQAKLEKLFPGISICVTEKADSLFPIVSAASIAAKVTRDSRLRNWQFREKNIKVPDAGYGSGYPGDPNTKKFLQLSVEPVFGFCSLVRSSWKTASTIVEKRCVPGSWEDDEEEGKSQSKRMTSWMVPKNETEVVPKRNVYFKERHMSNILTF”, the “soluble on expression in E. coli” value is “not soluble”.

In the case of “VRWIGLSTGLVSAMLVAGLVACGSNSPASSPAGPTQGARSIVVFAAASLQSAFTQIGEQFKAGNPGVNVNFAFAGSSELATQLTQGATADVFASADTAQMDSVAKAGLLAGHPTNFATNTMVIVAAAGNPKKIRSFADLTRPGLNVVVCQPSVPCGSATRRIEDATGIHLNPVSEELSVTDVLNKVITGQADAGLVYVSDALSVATKVTCVRFPEAAGVVNVYAIAVLKRTSQPALARQFVAMVTAAAGRRILDQSGFAKP”, the “soluble on expression in E. coli” value was “not soluble”.

With “MERGVDNWKVDCKCGTKDDDGERMLACDGCGVWHHTRCIGINNADALPSKFLCFRCIEL”, the “soluble on expression in E. coli” value is recorded as “soluble”.

For the sequence “GPGSMIFGSEPPLYLKPVGRRGLRRHEADVLQHYPGYSHPVVQLRGSEGYIGDSHRLHPRLTAAEELRHERELGAERRQRVVEVRRRRHCEREANLAQRREDEFQREQRHKAQLAGLCIRNEPGDGRDTITQQYRTEDARRHYEYKHELEKHRYFARQQRLREKTHPHGYNILTGEALPSTVVPPKPSIPSDTQLFAVQNGD”, the “soluble on expression in E. coli” value is “not soluble”.

Consider “MGSDKIHHHHHHGNDDFPAEEPKVPLEITSAFVTGDVQTRAVTPELLTSGSIGVFLEGRSGTGYDKKDNIQYDYNVGWKPKTETIYLGGEDADVCAYKKTTKLDLSAKEAVPLVSQIYDAEIDLVYATNQTVNGTSAGKSVEFTMGHAYSQIEFVFSREDYPNTCKVTEITVENANIIKTATLNLATGGYTPVTVEKVSYWTNVAKHEDGIAVPESGTVKSNVLMIPCTLANAGGTGVTLELKVDGKLMTVPIAHDKLGALTAGVIHQISLKLKGTALEISVKDTPWDNQPVDGEYNPEP”, for which the “soluble on expression in E. coli” value was “not soluble”.

On to “MINLELGKDFLDRFTKVCEFLRVEPSLDVVVFECESLEEFHEITGMPYHTGGVYHEGVIYTQPLDVLRRKNSLEATILHELLHHVLEMYFDLPRWMEEGVVLAVLGVKPEEVFGYHRDCLLRFMEKVRYEEIPDLVDRYRRSSVERRLEHHHHHH”, for which the “soluble on expression in E. coli” value is reported as “soluble”.

As to “MGSDKIHHHHHHMALTQLEQPLSPQPTPPDLRGYEYDLVIVGGGIIGLTLASALKDSGLSILLIEAKVASAAVAKGQAYAVHQLSALIYQGIGVWDKILPQIAKYRRVRLSDADYPNVVEFTTDDIHTAELGYVAEHQALLQPLQEFVQDCPNVTYLCPAEVVNTQYQKDIVAVDIKVADQLYTVRSKLLIAADGARSPIRQAAGIKTSGWKYWQSCIVAFVKPEKPHNNTAYERFWSSGPFAILPLPENRCRIVWTAPHEEAKALCALDDEQFLAELTRRYGDQMGKLELLGDRFVFQVQLMQSDRYVLPRLALIGDAAHNCHPVGGQGLNLGIRDAAALAQVIQTAHQAGKDIGDIQILKGYERWRKLENLTILGFTDLLDRMFSNNFLPVVVVRRLGLWFLQRVPLLKVFMLKLMIGLKGRTPELAKR”, the “soluble on expression in E. coli” value is reported as “not soluble”.

Turning to “MAHHHHHHMSEARQIQSMIDFIEREAQEKADELNSAAQEEYDVEKMRLVEAEKVKVRANNEQKLKQVDVGRRVARANFSKAQRLRIMEAQSNIVEQLKENIKTKLMAFVKNTDSYKKLLVSILHEALSAVRTDAIVYTCKNDEPIVTGMLSELEQWYLKTVGTRVSIRMGKEYLNAEEALGGVVVKSHDGHIVCNWTLSSRMRNCVNDQLPTIRYYLFNPESSI”, the “soluble on expression in E. coli” value was “not soluble”.

“MAGLRSFSIVMPAYNVVTQRGERIFRETLESIAASCRYLQQHFPYTPEGELILISDGSTDRTCDVAMAGWPNAVPLQLVGLPTNVGIAAARNIGVRLAKGEVIFFCDADDLYRPEHLFLALSVLNQPLPEPYAPAYFGAVRTGVYCRDRLHPYWHKSLEQTLVLNLAVRREVHEFIGGFPEDEVFRQFRYGAEDVAYAYWLHQFCHTARLEQRTVEYRRFPLEHHHHHH”: the “soluble on expression in E. coli” value is reported as “soluble”.
